Test: soluble on expression in E. coli; label from the status in PepcDB or PDB records

Sequence | soluble on expression in E. coli
MRVVYTSPRIENLQFLKSEFSNYSVIVLEEPKNDLFHDVLEGKITVDLYVRKISTQFPLYTRKLIEMLKELKSREIMQVEPYLEEVERLKNFSEGDERVREMEKRVNALYIDYTESFLKSDFDEIVEKVLRFSEAEAERIMLRDEMRAKALDDLDEAVIEAGMNHIKLAEILDAESVRIPEIIAERLGTRYLENPGEKLLKAFIFEEDDDLRLLAARNLIFTSLLEKREMEPDFDGDYPHFTHEQKLVRFVDKLDYEKCRKLFYRFWSPR | not soluble
MRWTKEELDRYHRQMILPQVGPEGQERLKRASVVVVGAGGLGVPVLQYLVAARVGRVGVVEMDRVEVSDLHRQVLYTTEDVGEPKALVAQKRLQALNPLVRVEAYPVRLTSENALEILRPYDLVVDASDNFPTRYLVNDAAVLLGKPLVFGAIYQFDGQGTVFHHPTLHGEMGPCYRCLFPKPPPPGAVPSCAEAGVFGVLPAVVGSLMAAEALKVLLGIGKPLAGHLLLYDALEAGFRKLTVRRNPRCPVCGDEPTQRELVDYEAFCGLG | soluble
MRYRDFDIFKFWFRAVEKFAPWVHKIYLITDNQVPDWLDTRNSKLTVIDHRDIMDADWLPTFNSNAIELNAYKIKNLSEKFVLFNDDTILNSYVDKVDFFDENYPKDIYVESPIMATKGSVDHIMVNNVEIINEFFEKKNFYKKNLTKVFNPKIGIKLLRTLALLPSSKFAGFWNSHLPISYNKTTFETVWSNCEGKLVATSKNKFRTAYDVSHWLMRYWQLASGNYHLQNNIGKVYDLSSQNIDEVVTQLQRSHSKIICLNDNDELDDYEGVKGKLVTTLNEKFSEKSKFELLEHHHHHH | not soluble
MRYSDGRYEADIDITVEEWKSMLQNPKIFGPKYLDMILKWYYEIDHRATSQAIMAKYPSELKGTPYNGYVIGLTNRIIKYLNRFEVIGTQGNESKFIVPFEGWYEDYKEGNHFVWKVRDELVQAIEELGLVDEKKFPSEEEELKSYSIENRKDGKIIMRYTTQYERNPINRRNAIRIHGTVCQGCGFDFEKVYGEIGKDYIEVHHIKPLYEGGGSVPINAETDLICVCANCHRMIHRRKDKVLSLKELQKLLLANKNLEHHHHHH | soluble
MSAAPLVRAVRWYQRVLSPRKPAPTCRFSPTCSEYAAQALDRHGALKGGWLALWRVLRCNPLVPGGFDPV | soluble
MSAASTTSTPAAAAVAPQQPESLYRVVQTLGEGAFGEVLLIVNTKNPEVAAAMKKINIANKSKDFIDNIRKEYLLQKRVSAVGHDNVIRMIGMRNDPQFYYLFLEYADGGELFDKIEPDCGMSPVFAQFYFKQLICGLKFIHDNDVVHRDIKPENLLLTGTHVLKISDFGMATLYRNKGEERLLDLSCGTIPYAAPELCAGKKYRGPPVDVWSSGIVLIAMLTGELPWDRASDASQSYMGWISNTSLDERPWKKIDVRALCMLRKIVTDKTDKRATIEQIQADPWYQHNFGQVETPNGRPLKRARNNDENITCTQQAECSAKRRHLETPNEKSTLAERQNASFSQPTKTEDLLLTQHIDMSQTNSNLLQRMVCRMTRFCVVTDIRSTYQKVARASEHAGFGVRETDDYRLLVTWREVSMMVSLYTMGDIPDKPRVMVDFRRSRGDGIQFKKMFMDVRNRMHEWICTDGNNWLANLGYVPRNPQIVNGGGVNVEHSASSINVDV | not soluble
MSAFTPASEVLLRHSDDFEQSRILFAGDLQDDLPARLDTAASRAHTQQFHHWQVLSRQMGDNARFSLVATADDVADCDTLIYYWPKNKPEAQFQLMNLLSLLPVGTDIFVVGENRSGVRSAEQMLADYAPLNKVDSARRCGLYFGRLEKQPVFDAEKFWGEYSVDGLTVKTLPGVFSRDGLDVGSQLLLSTLTPHTKGKVLDVGCGAGVLSVAFARHSPKIRLTLCDVSAPAVEASRATLAANGVEGEVFASNVFSEVKGRFDMIISNPPFHDGMQTSLDAAQTLIRGAVRHLNSGGELRIVANAFLPYPDVLDETFGFHEVIAQTGRFKVYRAIMTRQAKKG | soluble
MSAITITEAAQAYLAELLEKQSTPGIGIRIFITQPGTQYAETCIAYCKPGEEKVEDTAIALKDFTAWIDAVSEPFLEDAVVDYATDRMGGQLTIKAPNAKVPMVNEDSPITERINYYLQTEINPGLASHGGQVSLVDVVEDNIAVLRFGGGCQGCGMVDMTLKDGVEKTLIERIPELKGVRDVTDHSNKENAYY | not soluble
MSALFEPYTLKDVTLRNRIAIPPMSQYMAEDGMINDWHHVHLAGLARGGAGLLVVEATAVAPEGRITPGCAGIWSDAHAQAFVPVVQAIKAAGSVPGIQIAHAGRKASANRPWEGDDHIAADDTRGWETIAPSAIAFGAHLPKVPREMTLDDIARVKQDFVDAARRARDAGFEWIELHFAHGYLGQSFFSEHSNKRTDAYGGSFDNRSRFLLETLAAVREVWPENLPLTARFGVLEYDGRDEQTLEESIELARRFKAGGLDLLSVSVGFTIPDTNIPWGPAFMGPIAERVRREAKLPVTSAWGFGTPQLAEAALQANQLDLVSVGRAHLADPHWAYFAAKELGVEKASWTLPAPYAHWLERYR | soluble
MSANFTDKNGRQSKGVLLLRTLAMPSDTNANGDIFGGWIMSQMDMGGAILAKEIAHGRVVTVAVESMNFIKPISVGDVVCCYGQCLKVGRSSIKIKVEVWVKKVASEPIGERYCVTDAVFTFVAVDNNGRSRTIPRENNQELEKALALISEQPLLEHHHHHH | not soluble
MSANLVTPKWGYIGKMPAKGDFVKDGISPEFANRWHDWQQAVIAVSKEQLGDTWNDYFLTAPVWHFALDVSYMDDATYIGSMIPSVDACGRYFFFTVVRAVKGKAAQYWAQSGWTEDSQTLALSVLDDEFVFDVWHRSMQEKCELVSEVSICNEEMALLYQSPISTVFSFSTEAKQNTLLNHLIESQQRKPCFWWTEGSTHIESCMFVSTGLPSIGQFSAMLDGRWQMWSW | not soluble
MSAPNPKAFPLADAALTQQILDVVQQAANLRQLKKGANEATKTLNRGISEFIIMAADCEPIEILLHLPLLCEDKNVPYVFVPSRVALGRACGVSRPVIAASITTNDASAIKTQIYAVKDKIETLLI | soluble
MSARVRPFLMFQGVQAEAAMNFYLSLFDDAEILQIQRYGAEGPGPEGSVLKALFRLGDQSVHCIDSHVRHAFDFTPAFSFFVDCESNAQIERLAEALSDGGKALMPLGDYGFSQRFAWLADRFGVSWQLNLA | soluble
MSASGLLVEKSGPLSLIQDFGRFGLAHIGITQGGPVDDYAYSWANHLLGNRVNCSAIEITLGNACFIALQDCHLAICGGDLNASVDGHPIANWSDFSIKKGQKLQFGMAKNGLRAYLAVKGGFNVPEHLGSSSTVLREALGGLEANGNALKAGDVLPFDAHSLPNHKPRIMTFRFKPDYNLPITLRVIEGYQCDDFSVEAKEKFYSGSFAISPDSNRMGYRLEGNTVKPPYDGILSEGIALGAIQIPHDGNPIVLLNDHQTIGGYPKLGCVARIDLPRLAQAKPGQKVRFVKGDRQGLQDVWCQWAQFFGY | not soluble
MSASLAILTIGVVPMSEVLPLLTEYIDEQHITHHSLLGKMSREDVMADYAVEPGDDPLLTLLNDNQIAHVSRQKVERDLQSVVEVLDNQGYDVIILMSTAAIKSMAARNSILLEPLRIIPPLVASIVDGHQVGVIVPVAELLAAQEKKWQVLQMPPVYSLANPVHGSEQQLIDAGQALLDQGADVIMLDCLGFHQRHRDILQQALDVPVLLSNVLIARLASELLV | not soluble
MSCPVIELTQQLIRRPSLSPDDAGCQALLIERLQAIGFTVERMDFADTQNFWAWRGQGETLAFAGHTDVVPPGDADRWINPPFEPTIRDGMLFGRGAADMKGSLAAMVVAAERFVAQHPNHTGRLAFLITSDEEASAHNGTVKVVEALMARNERLDYCLVGEPSSIEVVGDVVKNGRRGSLTCNLTIHGVQGHVAYPHLADNPVHRAAPFLNELVAIEWDQGNEFFPATSMQIANIQAGTGSNNVIPGELFVQFNFRFSTELTDEMIKAQVLALLEKHQLRYTVDWWLSGQPFLTARGKLVDAVVNAVEHYNEIKPQLLTTGGTSDGRFIARMGAQVVELGPVNATIHKINECVNAADLQLLARMYQRIMEQLVA | soluble
MSDDDSSHDLPAANLQQLRLPDSASLRPAFSTHRPRILILYGSLRTVSYSRLLAEEARRLLEFFGAEVKVFDPSGLPLPDAAPVSHPKVQELRELSIWSEGQVWVSPERHGAMTGIMKAQIDWIPLSTGSIRPTQGKTLAVMQVSGGSQSFNAVNQMRILGRWMRMITIPNQSSVAKAFQEFDANGRMKPSSYYDRVVDVMEELVKFTLLTRDCSAYLTDRYSERKESAAELEHRVTLKSVHHHHHH | soluble
MSDDGSDTSFEEPHGDFDYTLLFEKFNKEVPKMEEVMKAAKKFGASHRHLINKFILEPSMSAKKMNLMFAKHLTTAIWKRHPDTVMQIQTNREEARQLSKLIVKTMNDDEGKGPKPFRPWRFVISTDEKSPTEFVTMTGCGRNSSVISEASDLTKVERALLLVILEEMISSDGTVQMDWVHSQIRHEPCKMPGPKCDIFMAKMMRQRYFLMTDENEVAEITPRILVELEPWLRAKFTGDLKTCELCRKIISRSVYTAECQKCHALCHFNCFKNATIISHQDNVECQKCNQNLSLNEVLKQIDTKKATGVPRSRDTVARSPSPDSDVPKAPSRTQRAKSKSKTPAPVDSDDDMTITPRPTRGKRNQRVPDSDSE | not soluble
MSDKKVFILSGARTPIGAYRGSFANFGAVELGTVAAKAAIERSGVAPEKIEEVIGGCVLPAGLGQNVTRQISLSAGLPVTTQAVTVNKVCSSSMKALVTAAVEIKAGYYDTILVVGTENMSQVPFYVPRGEIPFGGIQMTDGISKDGLEDIKEKGPMGLCAEKTVKDYGITREEQDAYAIESYKKASNAWSSEKFSEEVVPVSVKTSRSEVVITEDEEYKKLIESKVSSLKPVFVRDGTGTITPANASSLNDGAVATVVVGENALPQGAHPLAELVAFAEAGRAPIDFTVAPVDAVRLLLKKSGLQVSDIALWELNEAFAVTVLAFIKELNIEPSVVNVKGGAVAIGHPLGMSGLRIVNSLAYSLAPGQLGVAAICNGGGEATAVLIKKL | not soluble
MSDKNQIAARASLIEQLMSKRNFEDLGNHLTELETIYVTKEHLQETDVVRAVYRVLKNCPSVALKKKAKCLLSKWKAVYKQTHSKARNSPKLFPVRGNKEENSGPSHDPSQNETLGICSSNSLSSQDVAKLSEMIVPENRAIQLKPKEEHFGDGDPESTGKRSSELLDPTTPMRTKCIELLYAALTSSSTDQPKADLWQNFAREIEEHVFTLYSKNIKKYKTCIRSKVANLKNPRNSHLQQNLLSGTTSPREFAEMTVMEMANKELKQLRASYTESCIQEHYLPQVIDGTQTNKIKCRRCEKYNCKVTVIDRGTLFLPSWVRNSNPDEQMMTYVICNECGEQWYHSKWVCW | soluble
MSDLADNAIDAARQENVARILEAAERLFRHYGYAKTNVADIARELDMSPANIYRFFASKTEIHQTLCLRMLGASYQQALEIAHLPLSASERLRRYALGQHKLTVETMLDEQKVHEMVVVAIERDWHVIEKHISRLDDLLAGIIREGIEAGEFADVDPAVAARCFGASLVTLCHPQIVAQCLAKENRATPDELVEFAIRALKK | soluble
MSDQQQPPVYKIALGIEYDGSKYYGWQRQNEVRSVQEKLEKALSQVANEPITVFCAGRTDAGVHGTGQVVHFETTAQRKDAAWTLGVNANLPGDIAVRWVKAVPDDFHARFSATARRYRYIIYNHRLRPAVLSKGVTHFYEPLDAERMHRAAQCLLGENDFTSFRAVQCQSRTPWRNVMHINVTRHGPYVVVDIKANAFVHHMVRNIVGSLMEVGAHNQPESWIAELLAAKDRTLAAATAKAEGLYLVAVDYPDRYDLPKPPMGPLFLAD | soluble
